Measured values: article PMC9166294, “Patched 1 regulates Smoothened by controlling sterol binding to its extracellular cysteine-rich domain” (Science Advances, 2022)

B1: Nb8-mVenus (VHH)
VHH: QVQLQESGGGLVQAGGSLRLSCAASGYIFSSYAMGWYRQAPGKEREFVATIGWGTITYYADSVKGRFTISRDNAKNTVYLQMNSLKPEDTAVYYCAAQDLLYYSFPGDHAYWGQGTQVTVSS
notes: Fused at its C terminus to a HRV3C-mVenus-12His fragment (HRV3C protease site between Nb8 and mVenus); the only Nb8 construct described is this one; also called active-conformation specific nanobody Nb8; active-state selective Nb8; not shown: mVenus, C-terminal, kept; 12His, C-terminal, kept

What was measured:
[1] = target: T1, PTCH1 (Patched 1) (Mus musculus, UniProt Q61115); assay: UV photocrosslinking in intact cells, immunoprecipitation and click-biotin detection; assay type: cell-based
T1 construct: full-length PTCH1-WT with C-terminal 1D4 tag
T1 sequence (Q61115 1-1434): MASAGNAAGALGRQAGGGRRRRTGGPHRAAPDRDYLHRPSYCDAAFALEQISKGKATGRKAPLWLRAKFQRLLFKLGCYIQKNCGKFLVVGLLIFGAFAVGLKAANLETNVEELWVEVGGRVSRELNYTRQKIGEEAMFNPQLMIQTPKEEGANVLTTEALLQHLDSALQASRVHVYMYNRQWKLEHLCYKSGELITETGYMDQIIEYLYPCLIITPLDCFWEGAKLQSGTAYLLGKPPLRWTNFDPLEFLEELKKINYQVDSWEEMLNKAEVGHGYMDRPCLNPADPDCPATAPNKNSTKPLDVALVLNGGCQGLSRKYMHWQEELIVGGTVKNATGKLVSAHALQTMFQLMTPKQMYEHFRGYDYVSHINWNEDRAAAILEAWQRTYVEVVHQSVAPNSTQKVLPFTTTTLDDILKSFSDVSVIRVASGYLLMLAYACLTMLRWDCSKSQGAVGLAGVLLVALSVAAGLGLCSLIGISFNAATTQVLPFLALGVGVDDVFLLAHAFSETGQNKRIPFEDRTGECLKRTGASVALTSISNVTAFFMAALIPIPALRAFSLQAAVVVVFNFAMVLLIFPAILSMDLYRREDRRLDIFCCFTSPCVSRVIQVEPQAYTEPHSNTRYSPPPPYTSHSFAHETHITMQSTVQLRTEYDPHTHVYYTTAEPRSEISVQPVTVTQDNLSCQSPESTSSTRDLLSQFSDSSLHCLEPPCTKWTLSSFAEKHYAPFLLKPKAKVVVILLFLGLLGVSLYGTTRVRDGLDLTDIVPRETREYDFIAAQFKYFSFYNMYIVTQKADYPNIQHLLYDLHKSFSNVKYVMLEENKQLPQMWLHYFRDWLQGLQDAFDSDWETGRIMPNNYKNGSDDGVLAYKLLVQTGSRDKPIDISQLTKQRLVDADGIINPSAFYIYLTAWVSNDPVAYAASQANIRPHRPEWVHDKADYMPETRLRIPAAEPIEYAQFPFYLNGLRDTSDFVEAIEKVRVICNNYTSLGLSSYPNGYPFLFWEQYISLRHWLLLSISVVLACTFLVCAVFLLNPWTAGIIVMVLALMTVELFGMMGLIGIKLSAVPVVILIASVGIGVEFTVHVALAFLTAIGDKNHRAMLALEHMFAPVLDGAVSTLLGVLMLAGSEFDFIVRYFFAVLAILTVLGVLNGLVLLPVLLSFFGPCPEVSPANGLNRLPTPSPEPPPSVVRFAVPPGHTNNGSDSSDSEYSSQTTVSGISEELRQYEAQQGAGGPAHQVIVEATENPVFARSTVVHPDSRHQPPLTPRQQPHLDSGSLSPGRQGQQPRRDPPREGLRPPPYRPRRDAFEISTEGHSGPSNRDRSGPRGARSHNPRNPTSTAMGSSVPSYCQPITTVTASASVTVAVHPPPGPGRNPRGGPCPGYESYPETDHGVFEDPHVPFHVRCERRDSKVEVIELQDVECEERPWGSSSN
Source text: UV photocrosslinking in intact cells, immunoprecipitation and click-biotin detection on PTCH1 (Patched 1) | PTCH1 itself could be photolabeled by 6-azi-20(S)-yne. Labeling of PTCH1 by 6-azi-20(S)-yne was diminished by SHH

[2] = target: T2, hSMOΔC (Homo sapiens, UniProt Q99835); assay: SEC; fluorescence-detection size exclusion chromatography (FSEC); purified hSMOΔC variants and Nb8-mVenus incubated 1 hour in 200 μl, no added ligands; Superose 6 Increase 3.2/300 in 10 mM Hepes pH 7.5, 150 mM NaCl, 0.02% GDN, 0.002% CHS; mVenus fluorescence followed; conditions: both partners purified
T2 construct: Smoothened (SMO), human, UniProt Q99835, amino acid residues 32 to 555, lacks the disordered C-terminal cytoplasmic tail; Purified in detergent (GDN/CHS); Cloned into pHR-CMV-TetO2 (Addgene plasmid no. 113883) with a 3C-protease cleavable mVenus-1D4 tag; called nonfluorescent in the FSEC assay; also called human Smoothened lacking its C-terminal cytoplasmic tail; hSMO∆C; not shown: HA, …
T2 sequence (Q99835 32-555, stated change not applied): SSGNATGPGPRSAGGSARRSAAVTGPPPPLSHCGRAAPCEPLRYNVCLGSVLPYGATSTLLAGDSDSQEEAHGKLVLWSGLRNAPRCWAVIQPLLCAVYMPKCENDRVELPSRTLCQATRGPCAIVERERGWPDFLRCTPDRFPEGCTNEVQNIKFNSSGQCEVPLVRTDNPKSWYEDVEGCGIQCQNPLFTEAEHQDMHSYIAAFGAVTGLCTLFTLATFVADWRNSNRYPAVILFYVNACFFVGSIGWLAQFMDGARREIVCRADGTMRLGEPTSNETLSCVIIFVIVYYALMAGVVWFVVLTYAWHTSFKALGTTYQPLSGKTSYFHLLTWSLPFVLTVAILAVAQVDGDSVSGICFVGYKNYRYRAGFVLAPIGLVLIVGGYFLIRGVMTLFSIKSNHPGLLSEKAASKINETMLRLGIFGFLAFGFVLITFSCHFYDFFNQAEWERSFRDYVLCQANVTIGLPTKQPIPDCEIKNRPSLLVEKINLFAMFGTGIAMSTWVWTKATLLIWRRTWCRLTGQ

[3] = target: T3, hSMOΔC-ΔCRD (Homo sapiens, UniProt Q99835); assay: as above; conditions: both partners purified
T3 construct: Smoothened (SMO), human, UniProt Q99835, amino acid residues 190 to 555, lacks the cysteine-rich domain and the C-terminal cytoplasmic tail; Purified in detergent (GDN/CHS); also called hSMOΔC lacking the CRD; not shown: mVenus, C-terminal, cleaved; 1D4, C-terminal, cleaved
T3 sequence (Q99835 190-555, stated change not applied): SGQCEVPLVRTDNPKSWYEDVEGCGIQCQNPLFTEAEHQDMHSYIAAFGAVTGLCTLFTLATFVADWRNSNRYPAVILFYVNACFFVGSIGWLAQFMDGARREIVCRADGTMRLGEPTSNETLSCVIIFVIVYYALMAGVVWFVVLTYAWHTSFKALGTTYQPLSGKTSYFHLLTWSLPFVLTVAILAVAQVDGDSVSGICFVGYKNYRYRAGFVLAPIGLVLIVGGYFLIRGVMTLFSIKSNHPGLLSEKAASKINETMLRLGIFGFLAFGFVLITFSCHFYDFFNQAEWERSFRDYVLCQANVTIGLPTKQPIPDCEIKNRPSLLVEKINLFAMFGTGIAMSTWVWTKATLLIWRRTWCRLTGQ

| Molecule | UV photocrosslinking in intact cells, immunoprecipitation and click-biotin detec [1] | binding result [2] | binding result [3] |
| --- | --- | --- | --- |
| C#CCC[C@](C)(O)[C@H]1CC[C@H]2[C@@H]3CC4(N=N4)[C@H]4C[C@@H](O)CC[C@]4(C)[C@H]3CC[C@@]21C [6-azi-20(S)-yne] | PTCH1 itself could be photolabeled by 6-azi-20(S)-yne. Labeling of PTCH1 by 6-azi-20(S)-yne was diminished by SHH |  |  |
| B1 |  | binds | binds |
